Measured values published in patent US20220411504A1 (Janssen / Centocor, published 2022).

How the values were obtained:
[1] = molecular target: T1, Human CD3 epsilon (CD3ε) of the T cell receptor complex on cells (human, UniProt P07766 23-207); test: flow cytometry, E. coli supernatant on human T cells
T1 construct: On Jurkat cells and primary human (pan) T cells; also called T-cell surface glycoprotein CD3 epsilon chain; T3E
Protocol: The scFv molecules were then tested for their abilities to bind T cells, using flow cytometry. Briefly, human T cells were thawed and resuspended into flow staining buffer at 1×10\hat{ }6 cells/mL and plated at 50,000 cells/well. A positive control, CD3W36 was comprised of an anti-CD3 antibody SP34 formatted as LH-scFv, and a negative control, B23, an scFv targeted against the F-glycoprotein from respiratory syncytial virus, were used for comparison of binding. E. coli supernatants were added at 150 uL/well and incubated at 4° C. for 1 hr. […] After incubation, 200 uL of IntelliCyt running buffer was added to the mixture, and cells were resuspended in 30 uL running buffer containing 1:1,000 Sytox Green dead cell stain and analyzed on iQue Screener.

[2] = molecular target: T2, CD3W147 (homodimeric CD3εγ-Fc) (human, biotinylated); test: ELISA, E. coli supernatant (heated to 60° C., cooled) on biotinylated CD3W147
T2 construct: also called recombinant CD3
T2 chain: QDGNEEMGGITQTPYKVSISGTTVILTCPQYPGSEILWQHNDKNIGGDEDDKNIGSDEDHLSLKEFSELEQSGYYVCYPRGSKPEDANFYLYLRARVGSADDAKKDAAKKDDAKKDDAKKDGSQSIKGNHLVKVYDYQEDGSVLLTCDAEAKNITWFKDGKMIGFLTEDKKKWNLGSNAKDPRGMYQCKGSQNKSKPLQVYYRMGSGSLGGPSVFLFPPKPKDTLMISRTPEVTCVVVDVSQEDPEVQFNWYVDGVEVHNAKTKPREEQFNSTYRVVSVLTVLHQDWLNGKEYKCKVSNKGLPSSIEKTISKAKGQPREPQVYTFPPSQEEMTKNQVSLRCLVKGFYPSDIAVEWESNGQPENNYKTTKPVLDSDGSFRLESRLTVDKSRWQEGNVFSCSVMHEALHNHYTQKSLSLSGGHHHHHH
Protocol: Plates were blocked with 1×PBS-Tween supplemented with 3% milk. Plates were washed with 1×PBS-Tween. E. coli supernatants were heated to 60° C. then cooled to room temperature to assess their thermal stability. Supernatant was added to each plate and incubated for 45 min at room temperature.

T1 sequence (P07766 23-207 limits assumed, one chain of several): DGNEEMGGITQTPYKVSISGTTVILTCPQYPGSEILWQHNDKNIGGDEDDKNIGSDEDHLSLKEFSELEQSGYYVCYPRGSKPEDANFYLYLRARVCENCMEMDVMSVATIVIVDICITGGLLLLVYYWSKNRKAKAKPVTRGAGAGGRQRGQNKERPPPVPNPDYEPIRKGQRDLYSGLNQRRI

B1: CD3W234-HL-E.c. (scFv)
scFv: EVQLVESGGGLVKPGGSLRLSCAASGFTFSRYNMNWVRQAPGKGLEWVSSISTSSNYIYYADSVKGRFTFSRDNAKNSLDLQMSGLRAEDTAIYYCTRGWGPFDYWGQGTLVTVSSGTEGKSSGSGSESKSTDILLTQSPGILSVSPGERVSFSCRARQSIGTAIHWYQQRTNGSPRLLIKYASESISGIPSRFSGSGSGTDFTLTINSVESEDIADYYCQQSNSWPYTFGGGTKLEIKGPGGQHHHHHHGAYPYDVPDYAS
notes: E. coli supernatant; also called CD3B815-HL-scFV
In the case of B1, the “MFI (n = 2)” value [1] is reported as 66800 and the binding result [2] is reported as “binds”.

B2: CD3W248-HL-E.c. (scFv)
scFv: EVQLVESGGGLVKPGGSLRLSCAASGFTFSRYNMNWVRQAPGKGLEWVSSISTSSNYIYYADSVKGRFTFSRDNAKNSLDLQMSGLRAEDTAIYYCTRGWGPFDYWGQGTLVTVSSGTEGKSSGSGSESKSTDILLTQSPGILSVSPGERVSFSCRARQSIGTAIHWYQQRTNGSPRLLIKYASESISGIPSRFSGSGSGTDFTLTINSVESEDIADYYCQQSGSWPYTFGGGTKLEIKGPGGQHHHHHHGAYPYDVPDYAS
notes: E. coli supernatant
In the case of B2, the “MFI (n = 2)” value [1] is reported as 60400 and the binding result [2] is reported as “binds”.

B3: CD3W245-HL-E.c. (scFv)
scFv: EVQLVESGGGLVKPGGSLRLSCAASGFTFSRYNMNWVRQAPGKGLEWVSSISTSSNYIYYADSVKGRFTFSRDNAKNSLDLQMSGLRAEDTAIYYCTRGWGPFDYWGQGTLVTVSSGTEGKSSGSGSESKSTDIQMTQSPSSLSASVGDRVTITCRARQSIGTAIHWYQQKPGKAPKLLIKYASESISGVPSRFSGSGSGTDFTLTISSLQPEDFATYYCQQSGSWPYTFGQGTKLEIKGPGGQHHHHHHGAYPYDVPDYAS
notes: E. coli supernatant
For B3, the “MFI (n = 2)” value [1] was 178000 and the binding result [2] was “binds”.

B4: CD3W242-HL-E.c. (scFv)
scFv: EVQLVESGGGLVKPGGSLRLSCAASGFTFSRYNMNWVRQAPGKGLEWVSSISTSSNYIYYADSVKGRFTFSRDNAKNSLDLQMSGLRAEDTAIYYCTRGWGPFDYWGQGTLVTVSSGTEGKSSGSGSESKSTDIQMTQSPSSLSASVGDRVTITCRARQSIGTAIHWYQQKPGKAPKLLIKYASESISGVPSRFSGSGSGTDFTLTISSLQPEDFATYYCQQSNSWPYTFGQGTKLEIKGPGGQHHHHHHGAYPYDVPDYAS
notes: E. coli supernatant
With B4 the “MFI (n = 2)” value [1] was 126000 and the binding result [2] was “binds”.

B5: CD3W238-HL-E.c. (scFv)
scFv: EVQLVESGGGLVKPGGSLRLSCAASGFTFSRYNMNWVRQAPGKGLEWVSSISTSSNYIYYADSVKGRFTFSRDNAKNSLDLQMSGLRAEDTAIYYCTRGWGPFDYWGQGTLVTVSSGTEGKSSGSGSESKSTDIQMTQSPSSLSASVGDRVTITCRARQSIGTAIHWYQQKPGKAPKLLIYYASESISGVPSRFSGSGSGTDFTLTISSLQPEDFATYYCQQSNSWPYTFGQGTKLEIKGPGGQHHHHHHGAYPYDVPDYAS
notes: E. coli supernatant
In the case of B5, the “MFI (n = 2)” value [1] is reported as 137000 and the binding result [2] is reported as “binds”.

B6: CD3W244-HL-E.c. (scFv)
scFv: EVQLVESGGGLVKPGGSLRLSCAASGFTFSRYNMNWVRQAPGKGLEWVSSISTSSNYIYYADSVKGRFTFSRDNAKNSLDLQMSGLRAEDTAIYYCTRGWGPFDYWGQGTLVTVSSGTEGKSSGSGSESKSTDIQMTQSPSSLSASVGDRVTITCRARQSIGTAIHWYQQKPGKAPKLLIYYASESISGVPSRFSGSGSGTDFTLTISSVQPEDFATYYCQQSGSWPYTFGQGTKLEIKGPGGQHHHHHHGAYPYDVPDYAS
notes: E. coli supernatant
For B6, the “MFI (n = 2)” value [1] was 166000 and the binding result [2] was “binds”.

B7: CD3W243-HL-E.c. (scFv)
scFv: EVQLVESGGGLVKPGGSLRLSCAASGFTFSRYNMNWVRQAPGKGLEWVSSISTSSNYIYYADSVKGRFTFSRDNAKNSLDLQMSGLRAEDTAIYYCTRGWGPFDYWGQGTLVTVSSGTEGKSSGSGSESKSTDIQMTQSPSSLSASVGDRVTITCRARQSIGTAIHWYQQKPGKAPKLLIKYASESISGVPSRFSGSGSGTDFTLTISSVQPEDFATYYCQQSNSWPYTFGQGTKLEIKGPGGQHHHHHHGAYPYDVPDYAS
notes: E. coli supernatant
With B7 the “MFI (n = 2)” value [1] was 111000 and the binding result [2] was “binds”.
